Experimental data taken from PMC5374059 (Journal of molecular biology, 2016).
Ends that are not written are not given here. Me3 = trimethyl-lysine; Me2 = dimethyl

T1: Set3 PHD finger (aa 116-184), crystallised (yeast, UniProt P36124 116-184)
T1 sequence (looked up): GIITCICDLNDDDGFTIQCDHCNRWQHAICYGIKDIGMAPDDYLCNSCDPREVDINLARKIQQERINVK

T2: M132T mutant of MLL5 PHD (human, UniProt Q8IZD2 117-181, M132T)
T2 sequence (looked up): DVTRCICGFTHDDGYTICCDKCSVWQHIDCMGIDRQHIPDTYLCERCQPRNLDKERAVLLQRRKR


Experiments:
[1] = target: T131M mutant of Set3 PHD (yeast) (UniProt P36124); assay: other fluorescence titration
[2] = target: Set3 PHD finger (wild type, as used in fluorescence and NMR titrations) (yeast) (UniProt P36124); assay: other fluorescence titration
[3] = target: Set3 PHD finger (wild type, as used in fluorescence and NMR titrations) (yeast) (UniProt P36124); assay: NMR titration
[4] = target: T1, Set3 PHD finger (aa 116-184), …; assay: crystal structure
[5] = target: T2, M132T mutant of MLL5 PHD; assay: NMR titration

Molecule	Kd [1] [µM]	Kd [2] [µM]	Kd [3] [µM]	binding result [4]	also measured
histone H3K4me3 peptide (residues 1-12 of histone H3) (from UniProt P61830 2-13)	2.5	20			
histone H3K4me2 peptide (residues 1-12 of histone H3) (from UniProt P61830 2-13)	8	30			
histone H3K4me1 peptide (residues 1-12 of histone H3) (from UniProt P61830 2-13)			790		
ARTK(Me3)QTARKSTG (peptide, UniProt P61830 2-13, looked up) [histone H3K4me3 peptide (residues 1-12 of histone H3)]				binds	fold selectivity for H3K4me3 over H3K4me2 [5]: 1.5 fold

Now from value to molecule, other results behind:

Kd [1] [µM]	Kd [2] [µM]	Kd [3] [µM]	binding result [4]	Molecule	also measured
		1400		histone H3K4me0 peptide (unmodified, residues 1-12 of histone H3) (from UniProt P61830 2-13)	
			binds	ARTK(Me2)QTARKSTG (peptide, UniProt P61830 2-13, looked up) [histone H3K4me2 peptide (residues 1-12 of histone H3)]	
